Data on two molecules can be found in patent US20260265360A1, “USE OF ANTI-FAM19A5 ANTAGONISTS FOR TREATING HEARING DISORDERS” (NEURACLE SCIENCE CO., LTD., priority 2023, published 2026).

The target of assay [1] is human FAM19A5 (Homo sapiens, UniProt Q7Z5A7). The experiment in a line: HDX-MS epitope mapping. It is filed as binding. The conditions noted are these: HDX-MS deuterium uptake heat map; residues of SEQ ID NO: 304. The protocol:
Hydrogen/deuterium exchange mass spectrometry (HDX-MS) was utilized as described below to probe the binding epitope of human FAM19A5 for the clone 2-13 anti-FAM19A5 antibody.
Prior to epitope mapping experiments, non-deuteriated experiments were carried out to generate a list of common peptides for FAM19A5 protein. Off-line and on-line pepsin digestion were used to digest the FAM19A5 protein. Houde, D., et al., Methods Mol Biol 988:269-89 (2013). With on-line digestion, pepsin immobilized column was used (~20° C.) and the efficiency of the reaction was regulated by adjusting the flow rate. With the off-line method, FAM19A5 protein was digested manually with pepsin at 4° C. for 5 minutes, and then, the mixture was loaded to liquid chromatography column for analysis. To identify the condition for maximal protein coverage, one or more of the following parameters were adjusted: potassium phosphate, sodium phosphate, quench holding time, reducing reagent (TCEP), urea concentration, and pepsin concentration. The Waters PLGS software was used to analyze the raw mass spectrometry (MS) data generated to determine whether maximal protein coverage was obtained. To confirm the reproducibility of the experiments, each of the experimental conditions were repeated at least twice, and peptides that were generated were confirmed. […]

Assay [2] concerns inner hair cells of mouse cochlear explant. The experiment in a line: Reversal of FAM19A5-induced inhibition of synaptogenesis (CtBP2 puncta). It is filed as cell-based. The conditions noted are these: 1 μM FAM19A5 protein plus anti-FAM19A5 antibody, treated 1 DIV, stained 2 DIV. On the procedure:
Cochlear explant were cultured in medium consisting of plating media, which consist of Neurobasal media (Invitrogen), 1% N2 supplement, and 10 μg/mL Ampicillin with culture media with additional 1% FBS.
Postnatal day 4-5 (P4-5) C57BL/6 mice were sacrificed for inner ear dissection. Mouse head was bisected, and brain tissue was removed. Cochlea was carefully separated the from the extraneous bones in ice-cold HBSS (5 mM HEPES/1.3 mM CaCl2), 0.9 mM MgCl2, pH 7.4) or External solution (1.2 mM CaCl2), 1 mM MgCl2, 5 mM HEPES in HBSS). Then the stria vascularis and spiral bone plate was removed, and cochlea was cut into two to three sections. […]
Mouse cochlear explant cultures were treated with FAM19A5, FAM19A5 combined with a FAM19A5 antagonist (e.g., described herein, e.g., 1-30 antibody), or a FAM19A5 antagonist (e.g., described herein, e.g., 1-30 antibody) alone at 1 DIV to determine the level of synaptogenesis at 2 DIV by immunostaining CtBP2, a ribbon synapse marker. To quantify the number of CtBP2 puncta of individual inner hair cells, z-stack confocal images were exported in “multi-page” and the number of CtBP2 puncta from each individual inner hair cells were measured using ROI manger and multi-point tool from Fiji (Image J). Number of CtBP2 puncta from five individual inner hair cells were counted per image and 3 z-stack images were measured from each treatment group. […]

Assay [3] relates to aged mice. The experiment in a line: Age-related hearing loss in aged mice. It is filed as in vivo, mouse. The note with it: for ABR threshold vs control animals: 30 mg/kg i.v. weekly for eight weeks. The protocol:
FIGS. 17A, 17B, 17C, and 17D show the therapeutic effect of FAM19A5 antagonists (1-30) on auditory brainstem response (ABR) threshold in an aged mouse model. FIG. 17A provides a schematic of the experimental design. As shown, anti-FAM19A5 antibody (1-30) or control human IgG antibody was administered to the mice (1-year old) intravenously once a week (30 mg/kg per dose) for a total of eight administrations. ABR (i.e., hearing test) was measured both prior to the initial administration of the antibodies and then at one and two months after administration. FIG. 17B provides the results before injection. FIG. 17C provides the results at one month post administration. FIG. 17D provides the results at two months post administration. In each of FIGS. 16B-16D, ABR threshold was measured at a frequency ranging from 4 kHz to 64 kHz.
FIGS. 18A, 18B, and 18C show the therapeutic effect of FAM19A5 antagonists (1-30) as comparison of wave I amplitude profile in an aged mouse model. The mice were treated as shown and described in FIG. 17A. FIG. 18A provides the results before injection. FIG. 18B provides the results at one month post injection. FIG. 18C provides the results at two months post injection. Tone bursts were measured across 0 and 90 dB.
Next, to assess whether the FAM19A5 antagonists provided herein can also treat age-related hearing loss, aged mice (e.g., about 6 months to 1 year in age) were used. […] Then, various hearing parameters (e.g., ABR threshold, DPOAE amplitude, and ABR waveform analysis) were assessed in the animals at one and two months after initial administration.

Chain of human FAM19A5 (Q7Z5A7 26-125 isoform Q7Z5A7-2 limits assumed): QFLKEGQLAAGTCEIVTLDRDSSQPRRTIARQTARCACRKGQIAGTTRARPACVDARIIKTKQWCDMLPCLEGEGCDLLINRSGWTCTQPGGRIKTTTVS

B1: 2-13: anti-FAM19A5 antibody; VH SEQ ID NO: 35, VL SEQ ID NO: 39 (antibody, V domains shown)
VH: AVTLDESGGGLQTPGGALSLVCKASGFTFSSHGMFWVRQTPGKGLEYVAEITNDGSGTNYGSAVKGRATISRDNGQSTVRLQLNNLRAEDTGTYFCARSTYECPGGFSCWGDTGQIDAWGHGTEVIVSS
VL: ALTQPSSVSANPGETVKITCSGGSYSYGWFQQKSPGSALVTVIYWDDERPSDIPSRFSGALSGSTNTLTITGVQADDEAVYFCGTEDISGTAGVFGAGTTLTVL
modifications: 2-13 VH; 2-13 VL
For the molecule B1, the “amino acid residues identified as important binding residues” value in assay [1] is 38-50 ([…]; i.e., SEQ ID NO: 199) and 51-64 ([…]; i.e., SEQ ID NO: 200).

B2: 1-30: anti-FAM19A5 antibody, de-immunized variant of 3-2; VH SEQ ID NO: 235, VL SEQ ID NO: 240 (antibody, V domains shown)
VH: AVTLDESGGGLQTPGGALRLSCKASGFDFESFNMFWVRQAPGKGLEYVSQISSSEEDENYAPAVKGRATISRDNGQSTLYLQMNSLRAEDTGTYYCAKSSYDCPYGHCSSGVDSAGEIDAWGHGTEVIVSS
VL: ALTQPSSVSANPGETVKITCSGGGSEEEQYYYGWYQQKPGSAPVTLIYQDEERPSDIPSRFSGSTSGSTATLTITGVQAGDEADYYCGSWDSEDEDHFGAGTTLTVL
modifications: Low-PI VH, 1-30 VH, 1-17 VH, 1-32 VH, 4-11 VH, 6-10 VH; 1-30 VL
For the molecule B2, the “number of CtBP2 puncta in inner hair cells” value in assay [2] was “increased (as compared to the FAM19A5 protein alone group) and comparable to that of the control group”. Also, in assay [3] (general trend, results not statistically significant), the “wave I amplitude vs control animals” value is recorded as “decreased wave I amplitude”. Also, the “ABR threshold vs control animals” value in assay [3] (one-month post administration) and in assay [3] (two-month post administration) was “significantly decreased” each time.
